Experimental data published in patent publication US20190134153A1, “IMMUNOMODULATORY EFFECT OF INHALED KINASE INHIBITOR PEPTIDES IN LUNG” (MOERAE MATRIX, INC., priority 2017, published 2019).

Legend:
Test in all cases: Kinase Profiling Assay
Format in all cases: biochemical
Conditions in all cases: 100 μM
PKG1β(h) = biological target: T1, PKG1β(h) (Homo sapiens, UniProt Q13976)
T1 sequence (Q13976 1-686 isoform Q13976-2): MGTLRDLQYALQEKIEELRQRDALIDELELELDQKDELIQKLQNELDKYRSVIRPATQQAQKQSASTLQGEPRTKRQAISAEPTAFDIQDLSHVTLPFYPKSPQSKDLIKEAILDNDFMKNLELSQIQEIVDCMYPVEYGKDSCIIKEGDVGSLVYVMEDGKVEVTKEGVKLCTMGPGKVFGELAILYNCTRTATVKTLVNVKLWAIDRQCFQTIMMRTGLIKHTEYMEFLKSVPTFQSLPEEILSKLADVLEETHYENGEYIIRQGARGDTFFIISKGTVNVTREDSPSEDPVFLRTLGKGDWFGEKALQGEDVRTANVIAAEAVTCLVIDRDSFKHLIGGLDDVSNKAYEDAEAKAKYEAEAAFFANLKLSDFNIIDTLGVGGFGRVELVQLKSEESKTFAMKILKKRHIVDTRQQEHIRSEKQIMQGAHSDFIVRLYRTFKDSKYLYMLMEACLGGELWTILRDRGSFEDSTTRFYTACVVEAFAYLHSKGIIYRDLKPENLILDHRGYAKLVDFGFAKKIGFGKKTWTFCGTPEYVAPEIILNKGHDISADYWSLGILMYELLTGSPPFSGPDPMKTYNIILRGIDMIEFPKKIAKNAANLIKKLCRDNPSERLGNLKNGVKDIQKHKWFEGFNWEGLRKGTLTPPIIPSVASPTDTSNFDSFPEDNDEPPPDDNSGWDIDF

Haspin(h) = biological target: T2, Haspin(h) (Homo sapiens, UniProt Q8TF76)
T2 sequence (Q8TF76 1-798): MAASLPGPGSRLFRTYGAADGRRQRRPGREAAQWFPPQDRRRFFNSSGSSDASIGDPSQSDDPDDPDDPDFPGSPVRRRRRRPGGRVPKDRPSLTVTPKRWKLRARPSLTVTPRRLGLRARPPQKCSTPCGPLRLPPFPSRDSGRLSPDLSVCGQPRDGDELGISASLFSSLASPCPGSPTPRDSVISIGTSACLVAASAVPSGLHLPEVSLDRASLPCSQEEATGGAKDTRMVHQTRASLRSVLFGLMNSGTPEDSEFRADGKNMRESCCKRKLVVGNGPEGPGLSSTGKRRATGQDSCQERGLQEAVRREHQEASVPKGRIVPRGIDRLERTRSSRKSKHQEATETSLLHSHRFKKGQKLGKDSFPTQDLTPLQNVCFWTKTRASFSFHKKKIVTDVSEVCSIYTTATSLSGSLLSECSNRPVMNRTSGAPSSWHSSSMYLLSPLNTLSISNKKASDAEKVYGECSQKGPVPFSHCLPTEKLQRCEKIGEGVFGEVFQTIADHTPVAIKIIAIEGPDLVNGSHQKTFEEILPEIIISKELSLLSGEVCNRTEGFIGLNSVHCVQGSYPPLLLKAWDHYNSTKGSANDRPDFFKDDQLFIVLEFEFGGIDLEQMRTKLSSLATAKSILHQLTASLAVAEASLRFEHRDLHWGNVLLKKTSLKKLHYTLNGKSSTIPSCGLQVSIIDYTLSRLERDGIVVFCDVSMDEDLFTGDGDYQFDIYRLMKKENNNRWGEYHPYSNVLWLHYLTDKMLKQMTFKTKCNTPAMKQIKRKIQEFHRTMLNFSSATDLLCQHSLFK

cKit(D816V)(h) = cKit(D816V)(h) (Homo sapiens, UniProt P10721, D816V)
PKBα(h) = PKBα(h) (Homo sapiens, UniProt P31749)
Lck(h) activated = Lck(h) activated (Homo sapiens, UniProt P06239)
Fgr(h) = Fgr(h) (Homo sapiens, UniProt P09769)
CDK5/p25(h) = CDK5/p25(h) (Homo sapiens, UniProt Q00535)
PDGFRα(h) = PDGFRα(h) (Homo sapiens, UniProt P16234)
Syk(h) = Syk(h) (Homo sapiens, UniProt P43405)
PKCε(h) = biological target: T3, PKCε(h) (Homo sapiens, UniProt Q02156)
T3 sequence (Q02156 1-737): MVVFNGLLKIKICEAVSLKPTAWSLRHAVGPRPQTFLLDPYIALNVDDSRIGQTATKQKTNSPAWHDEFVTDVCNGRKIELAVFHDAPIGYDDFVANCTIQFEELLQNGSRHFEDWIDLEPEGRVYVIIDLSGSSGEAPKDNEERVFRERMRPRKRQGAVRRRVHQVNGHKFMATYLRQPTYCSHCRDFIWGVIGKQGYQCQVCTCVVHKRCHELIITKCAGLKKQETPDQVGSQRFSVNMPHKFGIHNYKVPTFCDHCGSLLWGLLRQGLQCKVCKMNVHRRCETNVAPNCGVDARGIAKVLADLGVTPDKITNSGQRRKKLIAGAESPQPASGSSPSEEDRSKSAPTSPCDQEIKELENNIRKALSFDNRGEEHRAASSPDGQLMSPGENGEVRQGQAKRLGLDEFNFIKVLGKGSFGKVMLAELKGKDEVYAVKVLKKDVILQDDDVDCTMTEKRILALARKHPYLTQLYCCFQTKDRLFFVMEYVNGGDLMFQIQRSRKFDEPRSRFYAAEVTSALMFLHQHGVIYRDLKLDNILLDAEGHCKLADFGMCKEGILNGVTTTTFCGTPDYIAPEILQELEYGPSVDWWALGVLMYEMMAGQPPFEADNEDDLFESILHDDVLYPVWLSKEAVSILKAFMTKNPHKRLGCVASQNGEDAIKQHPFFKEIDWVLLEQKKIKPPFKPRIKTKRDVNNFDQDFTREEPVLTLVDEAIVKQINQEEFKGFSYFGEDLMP

CK1δ(h) = CK1δ(h) (Homo sapiens, UniProt P48730)
Src(T341M)(h) = Src(T341M)(h) (Homo sapiens, UniProt P12931, T341M)

CDK5/p25(h), sequence (Q00535 whole entry): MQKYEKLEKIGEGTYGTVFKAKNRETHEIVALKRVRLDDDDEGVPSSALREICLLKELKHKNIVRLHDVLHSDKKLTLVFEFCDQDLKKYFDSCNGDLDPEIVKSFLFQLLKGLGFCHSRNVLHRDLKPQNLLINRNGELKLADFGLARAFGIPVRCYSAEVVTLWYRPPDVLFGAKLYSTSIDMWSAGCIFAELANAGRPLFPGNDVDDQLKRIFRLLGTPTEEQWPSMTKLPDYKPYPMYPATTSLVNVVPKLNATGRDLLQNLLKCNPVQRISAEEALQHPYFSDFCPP
CDK5/p25(h), sequence (Q15078 99-307 partner limits assumed): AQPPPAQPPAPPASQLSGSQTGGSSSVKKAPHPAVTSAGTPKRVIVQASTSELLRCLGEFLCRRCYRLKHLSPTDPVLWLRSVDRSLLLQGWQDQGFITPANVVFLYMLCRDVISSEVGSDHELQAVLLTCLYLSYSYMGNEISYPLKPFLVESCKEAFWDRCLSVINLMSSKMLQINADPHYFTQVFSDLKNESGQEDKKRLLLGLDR
PKBα(h), sequence (P31749 whole entry): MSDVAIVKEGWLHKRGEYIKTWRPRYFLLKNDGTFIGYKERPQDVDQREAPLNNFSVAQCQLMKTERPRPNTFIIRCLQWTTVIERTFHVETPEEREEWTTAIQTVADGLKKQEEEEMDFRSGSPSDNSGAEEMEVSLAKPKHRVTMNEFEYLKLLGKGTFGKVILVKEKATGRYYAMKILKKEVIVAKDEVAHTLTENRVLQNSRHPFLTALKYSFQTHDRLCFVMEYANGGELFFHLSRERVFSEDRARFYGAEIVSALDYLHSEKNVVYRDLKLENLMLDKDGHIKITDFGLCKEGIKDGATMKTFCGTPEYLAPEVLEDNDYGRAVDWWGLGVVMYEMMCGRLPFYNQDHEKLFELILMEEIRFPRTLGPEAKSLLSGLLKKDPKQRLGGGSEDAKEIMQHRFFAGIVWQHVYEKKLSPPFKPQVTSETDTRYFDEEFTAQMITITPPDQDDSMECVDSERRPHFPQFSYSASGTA
PDGFRα(h), sequence (P16234 24-1089): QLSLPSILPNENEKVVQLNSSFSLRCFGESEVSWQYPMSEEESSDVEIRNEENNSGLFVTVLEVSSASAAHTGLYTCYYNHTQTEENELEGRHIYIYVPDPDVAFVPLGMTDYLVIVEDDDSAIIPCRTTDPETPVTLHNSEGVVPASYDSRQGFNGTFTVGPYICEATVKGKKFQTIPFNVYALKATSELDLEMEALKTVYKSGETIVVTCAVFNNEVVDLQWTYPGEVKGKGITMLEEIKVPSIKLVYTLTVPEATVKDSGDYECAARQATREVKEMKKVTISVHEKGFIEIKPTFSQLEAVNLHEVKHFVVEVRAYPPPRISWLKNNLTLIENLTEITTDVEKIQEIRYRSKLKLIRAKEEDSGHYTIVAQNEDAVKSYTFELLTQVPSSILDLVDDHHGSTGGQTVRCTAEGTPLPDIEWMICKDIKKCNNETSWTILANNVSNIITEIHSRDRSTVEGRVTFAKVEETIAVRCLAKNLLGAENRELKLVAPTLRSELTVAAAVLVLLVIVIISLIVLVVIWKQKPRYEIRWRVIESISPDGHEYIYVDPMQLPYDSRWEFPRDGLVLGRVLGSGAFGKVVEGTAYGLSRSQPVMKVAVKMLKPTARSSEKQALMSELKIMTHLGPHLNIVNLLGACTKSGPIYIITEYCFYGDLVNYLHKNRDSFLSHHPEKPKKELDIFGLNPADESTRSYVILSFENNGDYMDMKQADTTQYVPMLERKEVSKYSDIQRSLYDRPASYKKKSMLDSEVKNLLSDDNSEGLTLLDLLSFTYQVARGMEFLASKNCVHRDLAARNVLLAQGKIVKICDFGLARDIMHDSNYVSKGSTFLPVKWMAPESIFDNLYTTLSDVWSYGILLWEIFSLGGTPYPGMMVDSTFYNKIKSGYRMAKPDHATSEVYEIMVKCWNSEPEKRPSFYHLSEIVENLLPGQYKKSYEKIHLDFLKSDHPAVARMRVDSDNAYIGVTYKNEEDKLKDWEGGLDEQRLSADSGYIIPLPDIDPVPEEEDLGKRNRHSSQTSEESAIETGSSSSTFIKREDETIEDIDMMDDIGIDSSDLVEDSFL
Lck(h) activated, sequence (P06239 whole entry): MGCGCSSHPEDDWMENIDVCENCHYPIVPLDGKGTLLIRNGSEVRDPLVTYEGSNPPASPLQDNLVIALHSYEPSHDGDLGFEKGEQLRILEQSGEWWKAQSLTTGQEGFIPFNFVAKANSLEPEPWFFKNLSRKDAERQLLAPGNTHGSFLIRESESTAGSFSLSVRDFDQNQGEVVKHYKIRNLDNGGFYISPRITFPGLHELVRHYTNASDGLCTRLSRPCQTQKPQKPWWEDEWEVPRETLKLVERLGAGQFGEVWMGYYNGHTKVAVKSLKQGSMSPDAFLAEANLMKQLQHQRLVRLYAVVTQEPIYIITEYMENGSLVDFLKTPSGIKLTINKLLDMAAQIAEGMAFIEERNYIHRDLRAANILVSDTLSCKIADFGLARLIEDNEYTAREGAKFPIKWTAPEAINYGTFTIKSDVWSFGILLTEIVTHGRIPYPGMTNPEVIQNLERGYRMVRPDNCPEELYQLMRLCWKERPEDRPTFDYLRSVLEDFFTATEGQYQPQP
CK1δ(h), sequence (P48730 whole entry): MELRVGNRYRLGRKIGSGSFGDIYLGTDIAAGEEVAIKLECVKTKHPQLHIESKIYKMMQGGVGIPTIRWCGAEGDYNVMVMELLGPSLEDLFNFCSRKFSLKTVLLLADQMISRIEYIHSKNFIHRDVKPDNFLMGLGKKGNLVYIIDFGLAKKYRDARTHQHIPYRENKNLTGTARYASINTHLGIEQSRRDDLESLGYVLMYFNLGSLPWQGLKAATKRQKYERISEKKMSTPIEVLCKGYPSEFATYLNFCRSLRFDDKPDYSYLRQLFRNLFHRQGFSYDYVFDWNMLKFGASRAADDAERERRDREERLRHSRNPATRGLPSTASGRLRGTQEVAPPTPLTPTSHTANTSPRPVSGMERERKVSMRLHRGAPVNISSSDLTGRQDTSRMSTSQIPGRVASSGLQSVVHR

Sequence	% activity (PKG1β(h)) [%]	% activity (Haspin(h)) [%]	% activity (cKit(D816V)(h)) [%]	% activity (PKBα(h)) [%]	% activity (Lck(h) activated) [%]	% activity (Fgr(h)) [%]	% activity (CDK5/p25(h)) [%]	% activity (PDGFRα(h)) [%]	% activity (Syk(h)) [%]	% activity (PKCε(h)) [%]	% activity (CK1δ(h)) [%]	% activity (Src(T341M)(h)) [%]
YARAAARQARAKALNRQLGVA [MMI-0200]	57	71	118	110	90	71	97	108	36	98	92	56
FAKLAARLYRKALARQLGVAA [MMI-0300]	50	48	60	57	243	60	89	65	24	79	92	70
KAFAKLAARLYRKALARQLGVAA [MMI-0400]	53	36	35	67	216	47	92	40	9	59	93	76
HRRIKAWLKKIKALARQLGVAA [MMI-0500]	24	25	30	30	76	–	66	40	5	23	78	59
